The results in this text go back to patent publication US20220332804A1 (CSL INNOVATION, published 2022).

Common to all, as to assay: SPR, mAb captured, C2 mutant analyte;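 also: Anti-C2 mAbs captured on goat anti-human IgG Biacore CM5 chips, alanine or serine C2 surface mutants flowed over at 37 °C, double-referenced sensorgrams fitted to a 1:1 binding model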
The target of assay [1] is T1, human C2 Q447A (human, UniProt P06681 21-752).
T1 sequence: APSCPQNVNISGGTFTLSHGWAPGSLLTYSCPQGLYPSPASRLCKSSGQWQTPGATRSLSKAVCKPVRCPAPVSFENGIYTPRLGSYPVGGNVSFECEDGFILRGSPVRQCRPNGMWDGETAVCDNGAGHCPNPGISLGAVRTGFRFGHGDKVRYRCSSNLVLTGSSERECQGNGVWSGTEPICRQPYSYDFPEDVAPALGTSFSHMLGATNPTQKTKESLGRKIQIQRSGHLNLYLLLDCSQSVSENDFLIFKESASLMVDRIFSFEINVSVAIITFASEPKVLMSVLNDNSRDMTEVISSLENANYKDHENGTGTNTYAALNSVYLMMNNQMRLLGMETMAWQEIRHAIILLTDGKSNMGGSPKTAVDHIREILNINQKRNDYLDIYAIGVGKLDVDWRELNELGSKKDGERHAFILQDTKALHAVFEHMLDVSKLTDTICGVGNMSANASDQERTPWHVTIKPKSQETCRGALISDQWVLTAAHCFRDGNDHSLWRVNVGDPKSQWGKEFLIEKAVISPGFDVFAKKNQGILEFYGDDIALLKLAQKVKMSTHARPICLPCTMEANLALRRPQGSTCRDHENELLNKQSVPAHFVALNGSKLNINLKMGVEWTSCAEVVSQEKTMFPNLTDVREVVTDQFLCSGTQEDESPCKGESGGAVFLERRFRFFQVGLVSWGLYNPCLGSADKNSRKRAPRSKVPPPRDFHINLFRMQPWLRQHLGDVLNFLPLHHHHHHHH

Assay [2] deals with T2, human C2 T317A (human, UniProt P06681 21-752).
T2 sequence: T1 sequence with T297A, A427Q

In assay [3] the target is T3, human C2 I320A (human, UniProt P06681 21-752).
T3 sequence: T1 sequence with I300A, A427Q

The target of assay [4] is T4, human C2 K329A (human, UniProt P06681 21-752).
T4 sequence: T1 sequence with K309A, A427Q

Positions count from the first letter of the chain named.

B1: RF16-214 (antibody, V domains shown)
VH: EVQLLESGGGLVQPGGSLRLSCAASGFTFSWYQMMWVRQAPGKGLEWVSRIYPSGGGTAYADSVKGRFTISRDNSKNTLYLQMNSLRAEDTAVYYCARDAGYGDNWGQGTLVTVSS
VL: QSALTQPPSVSVSPGQTASITCSGDKLGEKYASWYQQKAGQSPVMVIYQDRKRPSGIPERFSGSNSGNTATLTISGTQAMDEADYYCQAWDTRAVVFGGGTKLTVLG
As to B1, the Kd is 133 nM in assay [1], 27.9 nM in assay [2] and 62.6 nM in assay [4]. Besides, the binding result in assay [3] is reported as “no binding”.

As usually defined, the Kd is the concentration at which binding is half-saturated.
